{"source": "IntAct's records for PubMed 27857056", "parents": {"B1": {"name": "UDP-glucuronosyltransferase 1A9 (Homo sapiens), O60656-1 (parent)", "chain": "MACTGWTSPLPLCVCLLLTCGFAEAGKLLVVPMDGSHWFTMRSVVEKLILRGHEVVVVMPEVSWQLGRSLNCTVKTYSTSYTLEDLDREFKAFAHAQWKAQVRSIYSLLMGSYNDIFDLFFSNCRSLFKDKKLVEYLKESSFDAVFLDPFDNCGLIVAKYFSLPSVVFARGILCHYLEEGAQCPAPLSYVPRILLGFSDAMTFKERVRNHIMHLEEHLLCHRFFKNALEIASEILQTPVTEYDLYSHTSIWLLRTDFVLDYPKPVMPNMIFIGGINCHQGKPLPMEFEAYINASGEHGIVVFSLGSMVSEIPEKKAMAIADALGKIPQTVLWRYTGTRPSNLANNTILVKWLPQNDLLGHPMTRAFITHAGSHGVYESICNGVPMVMMPLFGDQMDNAKRMETKGAGVTLNVLEMTSEDLENALKAVINDKSYKENIMRLSSLHKDRPVEPLDLAVFWVEFVMRHKGAPHLRPAAHDLTWYQYHSLDVIGFLLAVVLTVAFITFKCCAYGYRKCLGKKGRVKKAHKSKTH", "partner": "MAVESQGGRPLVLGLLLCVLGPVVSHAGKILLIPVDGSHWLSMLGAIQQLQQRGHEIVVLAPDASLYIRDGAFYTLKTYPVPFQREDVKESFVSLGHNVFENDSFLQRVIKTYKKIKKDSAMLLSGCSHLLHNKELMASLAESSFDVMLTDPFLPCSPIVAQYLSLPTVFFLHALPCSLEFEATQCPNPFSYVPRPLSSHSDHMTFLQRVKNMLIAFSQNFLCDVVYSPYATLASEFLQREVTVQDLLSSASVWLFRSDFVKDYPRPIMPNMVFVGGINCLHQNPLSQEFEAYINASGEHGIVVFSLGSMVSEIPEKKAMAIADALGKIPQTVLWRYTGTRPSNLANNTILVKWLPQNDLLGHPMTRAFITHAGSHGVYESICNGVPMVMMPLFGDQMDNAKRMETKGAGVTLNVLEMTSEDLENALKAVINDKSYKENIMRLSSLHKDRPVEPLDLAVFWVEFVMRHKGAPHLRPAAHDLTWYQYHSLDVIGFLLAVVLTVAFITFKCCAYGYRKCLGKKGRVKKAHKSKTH"}, "B2": {"name": "UDP-glucuronosyltransferase 1A9 (Homo sapiens), O60656-1 (parent)", "chain": "B1 chain", "partner": "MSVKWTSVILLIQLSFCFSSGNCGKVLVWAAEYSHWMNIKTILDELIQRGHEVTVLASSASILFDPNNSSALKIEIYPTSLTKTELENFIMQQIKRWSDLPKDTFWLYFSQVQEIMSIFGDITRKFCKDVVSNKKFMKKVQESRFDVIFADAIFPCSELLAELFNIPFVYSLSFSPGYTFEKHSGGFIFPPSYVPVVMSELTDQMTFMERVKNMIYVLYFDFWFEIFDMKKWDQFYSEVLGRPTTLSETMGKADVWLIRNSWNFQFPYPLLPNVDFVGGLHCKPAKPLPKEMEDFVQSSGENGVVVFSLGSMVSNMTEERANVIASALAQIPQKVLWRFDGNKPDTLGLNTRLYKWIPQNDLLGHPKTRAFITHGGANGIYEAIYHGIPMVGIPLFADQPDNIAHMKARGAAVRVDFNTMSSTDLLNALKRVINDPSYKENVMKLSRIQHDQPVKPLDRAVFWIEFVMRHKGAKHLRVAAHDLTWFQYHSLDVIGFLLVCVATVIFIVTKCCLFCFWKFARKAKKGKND"}, "B3": {"name": "UDP-glucuronosyltransferase 2B7 (Homo sapiens), P16662 (parent)", "chain": "B2 partner", "partner": "B1 chain"}, "B4": {"name": "UDP-glucuronosyltransferase 2B7 (Homo sapiens), P16662 (parent)", "chain": "B2 partner", "partner": "B1 partner"}, "B5": {"name": "UDP-glucuronosyltransferase 1A9 (Homo sapiens), O60656-1 (parent)", "chain": "B1 chain", "partner": "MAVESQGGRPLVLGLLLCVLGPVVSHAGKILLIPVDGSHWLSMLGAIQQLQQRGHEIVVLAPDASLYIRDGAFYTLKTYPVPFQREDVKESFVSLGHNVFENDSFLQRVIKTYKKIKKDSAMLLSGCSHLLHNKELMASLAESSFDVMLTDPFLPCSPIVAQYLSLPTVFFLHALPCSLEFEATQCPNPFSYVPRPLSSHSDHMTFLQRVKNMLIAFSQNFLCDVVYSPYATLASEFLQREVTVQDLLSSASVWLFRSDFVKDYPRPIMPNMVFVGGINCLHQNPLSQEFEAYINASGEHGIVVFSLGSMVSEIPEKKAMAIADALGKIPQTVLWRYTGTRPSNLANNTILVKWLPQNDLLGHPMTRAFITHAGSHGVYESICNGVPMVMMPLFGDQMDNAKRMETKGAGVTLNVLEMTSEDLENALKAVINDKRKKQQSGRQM"}, "B6": {"name": "UDP-glucuronosyltransferase 2B7 (Homo sapiens), P16662 (parent)", "chain": "B2 partner", "partner": "B5 partner"}}}
{"variants_of": "B1", "details": "with UGT1A1, P22309-1"}
{"variant": "C3Y", "effect of a mutation on the interaction": "with no effect"}
{"variant": "D256N", "effect of a mutation on the interaction": "with no effect"}
{"variant": "M33T", "effect of a mutation on the interaction": "with no effect"}
{"variants_of": "B2", "details": "with ud2b7_human UGT2B7, P16662"}
{"variant": "C3Y", "effect of a mutation on the interaction": "with no effect"}
{"variant": "M33T", "effect of a mutation on the interaction": "with no effect"}
{"variant": "D256N", "effect of a mutation on the interaction": "with no effect"}
{"variants_of": "B3", "details": "with UGT1A9, O60656-1"}
{"variant": "A71S", "effect of a mutation on the interaction": "with no effect"}
{"variant": "D398N", "effect of a mutation on the interaction": "with no effect"}
{"variants_of": "B4", "details": "with UGT1A1, P22309-1"}
{"variant": "A71S", "effect of a mutation on the interaction": "with no effect"}
{"variant": "D398N", "effect of a mutation on the interaction": "with no effect"}
{"variants_of": "B5", "details": "with UGT1A1, P22309-2"}
{"variant": "C3Y", "effect of a mutation on the interaction": "with no effect"}
{"variant": "M33T", "effect of a mutation on the interaction": "with no effect"}
{"variant": "D256N", "effect of a mutation on the interaction": "with no effect"}
{"variants_of": "B6", "details": "with UGT1A1, P22309-2"}
{"variant": "A71S", "effect of a mutation on the interaction": "with no effect"}
{"variant": "D398N", "effect of a mutation on the interaction": "disrupting interaction strength"}
